Test results published in patent CN117460833A (dated 2024).

Molecular target: 重组小鼠ROR1 IgG2-Fc融合蛋白 (R&D系统公司, 目录号9910-RO-050) (mouse, UniProt Q9Z139 30-403)
Assay: ELISA, coated mouse ROR1 IgG2-Fc, antibody dilutions, anti-human IgG Fc-HRP

Chain of 重组小鼠ROR1 IgG2-Fc融合蛋白 (R&D系统公司, 目录号9910-RO-050) (Q9Z139 30-403 limits assumed): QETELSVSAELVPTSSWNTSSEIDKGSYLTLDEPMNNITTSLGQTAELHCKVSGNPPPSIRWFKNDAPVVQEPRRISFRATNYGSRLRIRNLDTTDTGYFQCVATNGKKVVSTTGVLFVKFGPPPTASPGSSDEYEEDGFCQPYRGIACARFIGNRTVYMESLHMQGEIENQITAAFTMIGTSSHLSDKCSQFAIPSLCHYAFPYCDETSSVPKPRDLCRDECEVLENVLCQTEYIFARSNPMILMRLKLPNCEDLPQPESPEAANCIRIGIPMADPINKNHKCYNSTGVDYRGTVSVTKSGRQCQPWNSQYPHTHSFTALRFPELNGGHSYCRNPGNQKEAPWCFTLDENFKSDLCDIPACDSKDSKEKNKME

B1: s10 (RO6D8-s10) 抗ROR1单克隆抗体 (antibody, V domains shown)
VH: QVQLVQSGAEVKKPGASVKVSCKASGYTFTNYYMHWVRQAPGQGLEWMGIINPSGGSTSYAQKFQGRVTMTRDTSTSTVYMELSSLRSEDTAVYYCARSSRSSYYLWVLDLWGQGTTVTVSS
VL: AIQMTQSPSSLSASVGDRVTITCRASQGVSTEIAWYQQKPGKAPKLLIYAASSLQSGVPSRFSGSGSGTDFTLTISSLQPEDFATYYCQQFNSYPITFGQGTRLEIK
  binding result: binds

B2: jlv1011 (RO6D8-jlv1011) 抗ROR1单克隆抗体 (antibody, V domains shown)
VH: QVQLVQSGAEVKKPGASVKVSCKASGYTFTSKYYHWVRQAPGQGLEWMGIINPTSGSTSYAQKFQGRVTMTRDTSTSTVYMELSSLRSEDTAVYYCARDSSRYSGWYFDLWGQGTTVTVSS
VL: AIQLTQSPSSLSASVGDRVTITCRASQGVSTEIAWYQQKPGKAPKLLIYAASSLQSGVPSRFSGSGSGTDFTLTISSLQPEDFATYYCQQYYGYPIAFGQGTRLEIK
  binding result: binds
